Data set [1] concerns the molecule itself. Nature of the data set: cryo-EM structure.
Data set [2] concerns the molecule itself. Nature of the data set: cryo-EM structure. The source holds these as a separate data set.

The term stoichiometry N denotes a count of units in the complex or per binding partner.

B1: human MCU (subunit of the purified uniplex) (natural protein, UniProt Q8NE86 51-351, looked up)
chain: VHQRIASWQNLGAVYCSTVVPSDDVTVVYQNGLPVISVRLPSRRERCQFTLKPISDSVGVFLRQLQEEDRGIDRVAIYSPDGVRVAASTGIDLLLLDDFKLVINDLTYHVRPPKRDLLSHENAATLNDVKTLVQQLYTTLCIEQHQLNKERELIERLEDLKEQLAPLEKVRIEISRKAEKRTTLVLWGGLAYMATQFGILARLTWWEYSWDIMEPVTYFITYGSAMAMYAYFVMTRQEYVYPEARDRQYLLFFHKGAKKSRFDLEKYNQLKDAIAQAEMDLKRLRDPLQVHLPLRQIGEKD
B1: the “stoichiometry N” value in data set [1] was found to be 4.

B2: human MICU2 (subunit of the purified uniplex) (natural protein, UniProt Q8IYU8 23-434, looked up)
chain: AVSRQAVRSPGPLAAAVAGAALAGAGAAWHHSRVSVAARDGSFTVSAQKNVEHGIIYIGKPSLRKQRFMQFSSLEHEGEYYMTPRDFLFSVMFEQMERKTSVKKLTKKDIEDTLSGIQTAGCGSTFFRDLGDKGLISYTEYLFLLTILTKPHSGFHVAFKMLDTDGNEMIEKREFFKLQKIISKQDDLMTVKTNETGYQEAIVKEPEINTTLQMRFFGKRGQRKLHYKEFRRFMENLQTEIQEMEFLQFSKGLSFMRKEDFAEWLLFFTNTENKDIYWKNVREKLSAGESISLDEFKSFCHFTTHLEDFAIAMQMFSLAHRPVRLAEFKRAVKVATGQELSNNILDTVFKIFDLDGDECLSHEEFLGVLKNRMHRGLWVPQHQSIQEYWKCVKKESIKGVKEVWKQAGKGLF
modifications: disulfide to MICU1 (C413 of MICU2 and C463 of MICU1 in range)
Regarding B2, in data set [2], the binding result is reported as “binds”.

Source of the values: paper PMC7544431 (Nature, 2020).
